Experimental findings from patent publication US7547676B2, “Antagonist peptides to the C5A chemotactic function of vitamin D binding protein” (The Research Foundation of State University of New York, priority 2004, dated 2009) are described below.

Experiment [1] has as its system differentiated HL-60 cells. Kind of experiment: Chemotaxis assay, differentiated HL-60 cells responding to C5a, C5a plus DBP or ZAS. The settings on record: differentiated HL-60 cells; for enhancement of C5a-mediated chemotaxis (net cell movement): 100 pM C5a (FIG. 1: 25-200 pM) plus 50 nM of indicated DBP, 60 min at 37° C. The format is cell-based, Human. Summed up: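 Bt2cAMP-differentiated (250 μM, 48 h) HL-60 cells pretreated 30 min at room temperature with buffer, 1 μM peptide 1 (130-152) or 1 μM peptide 2 (150-172). Migration toward 100 pM C5a, C5a plus 50 nM full-length DBP, or 1% ZAS measured in 48-well chamber through 5 μm cellulose nitrate filters, 60 min, 37 °C; read-out is leading-front distance (μm), mean±SEM of 3 experiments.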

Experiment [2] concerns differentiated HL-60 cells. Description: Ligand-induced calcium mobilization (Fluo-3 AM) in differentiated HL-60 cells. The format is cell-based, Human. The settings on record: differentiated HL-60 cells incubated 30 min with 50 nM of indicated DBP, then C5a. The procedure:
Cells and cell culture: Human promyelocytic cell line HL-60 was obtained from ATCC (Rockville, Md.) and cultured in RPMI 1640 medium supplemented with 10% FBS. Differentiation of HL-60 cells was initiated with 250 μM Bt2cAMP for 48 hours.
Ligand-induced calcium mobilization. Calcium mobilization studies were performed using the Fluo-3 AM probe as described previously (see Merritt, J. E. et al., Biochem. J. 269, 513-519 (1990)). Differentiated HL-60 cells (1×10^7 cells/ml) were resuspended in HBSS-1% BSA containing 2 μM Fluo-3 AM (Molecular Probes, Eugene, Oreg.) and incubated at 37° C. for 40 minutes. Cells incubated without the dye were used as a control to measure autofluorescence (Fmin). Following the dye uptake, cells were washed twice then suspended at 5×10^6 cells/ml in HBSS containing 1% BSA. Half of the cell suspension was treated with 50 nM DBP for 30 min at room temperature, the other half served as the untreated control. For each measurement, 400 μl of cell suspension (with or without DBP) was added to a cuvette and stimulated with various concentrations of purified C5a at room temperature (22-24° C.). Fluorescence was then measured immediately using a Perkin-Elmer LS-5 fluorometer at 505 nm excitation, 526 nm emission for Fluo-3 AM. Fmax was measured by treating labeled cells with 60 μM digitonin. Intracellular free calcium concentrations were calculated using the following formula: (Ca^2+)=Kd (F−Fmin)/(Fmax−F), where Kd=325 nM for Fluo-3 according to manufacturer (Molecular Probes).

B1: DBP: Purified human DBP obtained from Biodesign International (protein)
chain: LERGRDYEKNKVCKEFSHLGKEDFTSLSLVLYSRKFPSGTFEQVSQLVKEVVSLTEACCAEGADPDCYDTRTSALSAKSCESNSPFPVHPGTAECCTKEGLERKLCMAALKHQPQEFPTYVEPTNDEICEAFRKDPKEYANQFMWEYSTNYGQAPLSLLVSYTKSYLSMVGSCCTSASPTVCFLKERLQLKHLSLLTTLSNRVCSQYAAYGEKKSRLSNLIKLAQKVPTADLEDVLPLAEDITNILSKCCESASEDCMAKELPEHTVKLCDNLSTKNSKFEDCCQEKTAMDVFVCTYFMPAAQLPELPDVELPTNKDVCDPGNTKVMDKYTFELSRRTHLPEVFLSKVLEPTLKSLGECCDVEDSTTCFNAKGPLLKKELSSFIDKGQELCADYSENTFTEYKKKLAERLKAKLPDATPTELAKLVNKHSDFASNCCSINSPPLYCDSEIDAELKNIL
For B1, the “enhancement of C5a-mediated chemotaxis (net cell movement)” value in experiment [1] (listed as natural DBP) is recorded as “significantly enhanced”; in experiment [1] (listed as purified natural DBP) it was “significantly enhanced movement to C5a”. The “response of cells treated with DBP alone” value in experiment [1] (no C5a, chemotaxis and Ca2+ flux) is recorded as “no response”. Also, the “enhancement of intracellular Ca2+ flux in response to C5a” value in experiment [2] is listed as “significantly enhanced intracellular calcium influx”; in experiment [2] (listed as natural DBP), “significantly enhanced”.
